The results in this text go back to patent publication US20090010987A1, “Methods and Devices for Reducing Tissue Damage After Ischemic Injury” (Conor Medsystems, Inc., priority 2005, published 2009).

The data set is described as follows: Retention of insulin bioactivity when delivered in PLGA. Format: physicochemical. The following applies: delivered in poly(lactide-co-glycolide) (PLGA). The text has this:
Protein or peptide drugs can be human, non-human, recombinant or synthetic and can be the full length native form or an active fragment thereof. Preferably the insulin is a stable, short acting form which is resistant to radiation. Insulin in its crystalline form may be used for improved resistance to radiation. When the insulin is combined with a polymer, an agent may be added to preserve bioactivity. […] For substantially longer administration periods, a buffering agent such as hydroxyapatite may be used to maintain the pH as the polymer degrades to release acidic byproducts.

As to “Insulin: hormone which improves glycolic metabolism and ATP production; anti-ischemic agent”, the “period over which bioactivity is retained” value is given as “at least 24 hours”.
